{"source": "patent US20220088131A1", "about": "“COMPOSITIONS AND METHODS RELATING TO C5L2” (King's College London, priority 2013, published 2022)", "key": {"[1]": {"system": "human CD4+ T cells", "experiment": "IL-1β secretion by CD4+ T cells (ELISA)", "type": "cell-based", "settings": "resting and activated (CD3/CD46) CD4+ T cells; dRA 7 μM; 24 h; FIG. 8", "description": "(§1) FIG. 8. Effect of C5L2 blockage on IL-1β secretion by resting and activated CD4+ T cells and by monocytes. […] CD4+ T cells were isolated and left non-activated or CD3/CD46-activated as described (with or without addition of the C5aR/C5L2 double antagonist, dRA, 7 μM) and IL-1β secretion into the media measured at 24 h post activation using an ELISA. CD14+ monocytes (2.5×10^5) were left non-activated or activated with 100 ng/ml LPS for 12 h and supernatants assayed for IL-1β by ELISA. Data represent n=3 experiments with SEM for the CD4+ T cells and n=1 for monocytes (conditions were performed in duplicate and shown are the median values of each condition).\n(§2) Human blood was obtained from healthy volunteers following ethical guidelines set by Kings College London (KCL) ethics committee (REC: 09/H0804/72). PBMCs were isolated by density centrifugation (Ficoll-Paque PLUS; GE healthcare, Uppsala, Sweden). Cell subsets were isolated by magnetic separation following manufacturer's instructions (Miltenyi Biotec, Auburn, Calif.). […]\n(§3) The Th1/Th2/Th17 Cytometric Bead Array (BD Bioscience) was used to quantify cytokine production by CD4^+ T cells and monocytes following 12 or 36 h culture under distinct activation conditions. […] IL-1β amounts secreted into the cell media were measured by ELISA, according to the manufacturer's protocol (R&D Systems, Abingdon, UK)."}, "[2]": {"system": "CD14+ monocytes", "experiment": "Pro-inflammatory cytokine release by monocytes (CBA)", "type": "cell-based, human", "settings": "resting and Flagellin-stimulated monocytes; 36 hours; dRA 7 μM, PMX53 10 μM; FIG. 9", "description": "FIG. 9. C5L2 blockade induces pro-inflammatory cytokine release by human monocytes. CD14+ monocytes (2.5×10^5) were cultured for 36 hours and supernatants assayed for cytokines using CBA. Monocytes were treated with either C5aR/C5L2 double receptor antagonist (dRA; 7 μM), C5aR antagonist (PMX53; 10 μM) or control (non-treated). The effect of antagonist treatment was assessed on non-activated monocytes (white bars) as well as monocytes activated with 1 μg/ml of either Flagellin (light grey bars) or 100 ng/ml LPS (dark grey bars). Data represent n=4 experiments with SEM indicated. Statistical testing was not conducted as insufficient experimental repeats were performed to assume normal distribution. Asterisk denotes that the median value was 10,400 pg/ml.\nHuman blood was obtained from healthy volunteers following ethical guidelines set by Kings College London (KCL) ethics committee (REC: 09/H0804/72). PBMCs were isolated by density centrifugation (Ficoll-Paque PLUS; GE healthcare, Uppsala, Sweden). […]\nas §3"}, "[3]": {"system": "CD4+ T cells", "experiment": "TGF-β receptor chain expression in CD4+ T cells", "type": "cell-based, human", "settings": "FIG. 16", "description": "FIG. 16. C5L2 regulates TGF-β receptor chain expression in CD4+ T cells.\nResults described above indicate that C5L2-mediated signals actively contribute to the negative regulation of human Th1 and Th17 responses. To further define C5L2-activated signaling events in CD4+ T cells, gene, miRNA and methylation arrays were performed using T cells from the C5-deficient patient and T cells activated in the presence of the dRA. […] It is believed that TGF-β is important for IL-17 production but also IFN-γ suppression. TGF-β receptor signaling via autocrine TGF-β production has been implicated as required for control of Th1 responses and prevention of autoimmunity in certain experimental models (Ishigame, et al., Proc Natl Acad Sci USA. (2013) 110(17):6961-6). It was of interest to examine whether C5L2-mediated signals regulate autocrine TGF-β production, TGF-β receptor signaling, or both."}, "[4]": {"system": "human CD4+ T cells", "experiment": "Cytokine secretion by CD4+ T cells with C5aR or C5aR/C5L2 blockade (Cytometric Bead Array)", "type": "cell-based", "description": "Human blood was obtained from healthy volunteers following ethical guidelines set by Kings College London (KCL) ethics committee (REC: 09/H0804/72). PBMCs were isolated by density centrifugation (Ficoll-Paque PLUS; GE healthcare, Uppsala, Sweden). Cell subsets were isolated by magnetic separation following manufacturer's instructions (Miltenyi Biotec, Auburn, Calif.). Monocytes were positively selected using anti-CD14 microbeads (average purity 97%) and CD4^+ T cells were isolated from the CD14-negative fraction using anti-CD4 microbeads (average purity 98%). Alternatively, CD4^+ T cells were isolated from purified PBMCs by cell sorting after staining with antibodies to CD14 and CD4 and CD3.\nCD4^+ T cells and CD14^+ monocytes were cultured in medium (RPMI-1640 medium (Sigma-Alich, Suffolk, UK), supplemented with 1% GlutaMAX, 1% penicillin/streptomycin (both Life Technologies, Paisley, UK) and 10% FBS (HyClone Laboratories, Logan, Utah). In the case of T cells media was supplemented with 25 U/ml IL-2 (Sigma-Aldrich; or with concentrations indicated in figure legends). CD4^+ T cells (2.5×10^5) were cultured alone or together with plate-bound anti-CD3 (OKT3, Biolegend, San Diego, Calif.), anti-CD3 and anti-CD28 (CD28.2, BD Pharmingen, San Jose, Calif.) or anti-CD3 and anti-CD46 (TRA-2-10, provided by John Atkinson, Washington University, St Louis, Mo.) all immobilised onto 48-well plates at concentrations of 2 μg/ml PBS overnight at 4° C. Monocytes (2.5×10^5) were cultured either alone or in the presence of LPS or Flagellin (1 μg/ml). […] Cells were cultured at 37° C. and 5% CO2 and cytokine secetion assessed at 12, 24 or 36 h post activation.\nThe Th1/Th2/Th17 Cytometric Bead Array (BD Bioscience) was used to quantify cytokine production by CD4^+ T cells and monocytes following 12 or 36 h culture under distinct activation conditions. Samples were processed following manufacturer's instructions and acquired using BD FACScan. IL-1β amounts secreted into the cell media were measured by ELISA, according to the manufacturer's protocol (R&D Systems, Abingdon, UK)."}, "[5]": {"system": "CD14+ monocytes", "experiment": "IL-1β secretion by monocytes (ELISA)", "type": "cell-based, human", "settings": "resting and LPS-activated (100 ng/ml, 12 h) monocytes; FIG. 8", "description": "as §1, §2, §3"}, "[6]": {"settings": "activated CD4+ T cells, dRA 7 μM, PMX53 10 μM, FIG. 6"}}, "data": [{"molecule": "A8delta71-73: Dual C5aR/C5L2 receptor antagonist; C5a variant A8 (C27A, H67F, D69R, M70S, Q71L, G73R, Arg74 deleted) lacking amino acids 71-73 (protein) TLQKKIEEIAAKYKHSVVKKCCYDGAAVNNDETCEQRAARISLGPRCIKAFTECCVVASQLRANISFKRS", "values": [{"measurement": "IL-1β secretion", "setting": "[1]", "value": "increased IL-1β secretion"}, {"measurement": "secretion of IL-6", "setting": "[2]", "value": "promoted secretion"}, {"measurement": "expression of TGF-β receptor chains", "setting": "[3]", "value": "increased expression"}, {"measurement": "secretion of IFN-γ", "setting": "[4]; [6]", "value": "increased secretion"}, {"measurement": "secretion of IL-17", "setting": "[4]; [6]", "value": "increased secretion"}, {"measurement": "secretion of IL-6", "setting": "[4]; resting and activated CD4+ T cells, FIG. 7A", "value": "increased secretion"}, {"measurement": "IL-1β secretion", "setting": "[5]", "value": "increased IL-1β secretion"}]}]}
